{
  "source": "paper PMC5347031",
  "about": "“Characterization of long and stable de novo single alpha-helix domains provides novel insight into their stability” (Scientific Reports, 2017)",
  "proteins": {"B1": {"name": "EK2 de novo polypeptide (AEEAKKA repeats) (other)", "chain": "SAEEAKKAAEEAKKAAEEAKKAAEEAKKAAEEAKKAAEEAKKAAEEAKKAAEEAKKAAEEAKKAAEEAKKAAEEAKKAAEEAKKAAEEAKKAAEEAKW"}},
  "target": "the molecule itself",
  "assay": "SEC; Superdex 75, 200 μl of 20-40 μM protein, 150 mM NaCl, 10 mM sodium phosphate, 0.03% NaN3, pH 7.4, 0.5 ml/min",
  "data": [
    {"protein": "B1", "values": [
      {"measurement": "stoichiometry N", "value": "~2"}
    ]}
  ]
}
